Laboratory results from patent US20140193915, “COMPOSITIONS AND METHODS FOR CUSTOM SITE-SPECIFIC DNA RECOMBINASES” (Monsanto Technology, LLC, published 2014).
Residue numbers refer to the chain shown, from its start.

T1: pN-TALER IV-12 (synthetic)
T1 chain: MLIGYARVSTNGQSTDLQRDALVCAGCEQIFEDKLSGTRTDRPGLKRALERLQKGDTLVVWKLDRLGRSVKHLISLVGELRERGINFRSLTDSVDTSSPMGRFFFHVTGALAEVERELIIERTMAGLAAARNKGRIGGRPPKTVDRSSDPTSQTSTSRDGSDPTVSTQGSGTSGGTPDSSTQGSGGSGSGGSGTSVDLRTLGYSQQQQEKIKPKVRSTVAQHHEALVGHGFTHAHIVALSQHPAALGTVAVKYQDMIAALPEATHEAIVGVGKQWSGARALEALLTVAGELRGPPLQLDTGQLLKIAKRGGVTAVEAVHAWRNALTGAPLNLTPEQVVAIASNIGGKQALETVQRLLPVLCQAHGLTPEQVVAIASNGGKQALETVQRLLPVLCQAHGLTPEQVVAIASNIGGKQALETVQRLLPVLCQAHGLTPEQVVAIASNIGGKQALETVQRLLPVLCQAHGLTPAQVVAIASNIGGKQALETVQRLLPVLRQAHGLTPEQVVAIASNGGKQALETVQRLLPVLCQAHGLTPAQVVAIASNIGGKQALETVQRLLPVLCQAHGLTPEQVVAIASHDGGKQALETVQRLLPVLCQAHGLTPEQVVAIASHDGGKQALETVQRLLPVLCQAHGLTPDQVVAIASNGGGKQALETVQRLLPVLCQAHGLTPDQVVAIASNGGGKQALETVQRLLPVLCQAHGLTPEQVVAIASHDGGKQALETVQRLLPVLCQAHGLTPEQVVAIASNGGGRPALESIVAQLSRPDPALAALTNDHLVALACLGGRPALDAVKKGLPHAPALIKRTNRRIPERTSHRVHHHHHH

T2: sN-TALER IV-12 (synthetic)
T2 chain: T1 chain with A6V, G12D, S14N, D20N, E50K, V70M, V94I, H106Y, T108M, V114M

T3: pN-TALER IV-1-EE2 (GinL7C7-EE2-TALE13) (synthetic)
T3 chain: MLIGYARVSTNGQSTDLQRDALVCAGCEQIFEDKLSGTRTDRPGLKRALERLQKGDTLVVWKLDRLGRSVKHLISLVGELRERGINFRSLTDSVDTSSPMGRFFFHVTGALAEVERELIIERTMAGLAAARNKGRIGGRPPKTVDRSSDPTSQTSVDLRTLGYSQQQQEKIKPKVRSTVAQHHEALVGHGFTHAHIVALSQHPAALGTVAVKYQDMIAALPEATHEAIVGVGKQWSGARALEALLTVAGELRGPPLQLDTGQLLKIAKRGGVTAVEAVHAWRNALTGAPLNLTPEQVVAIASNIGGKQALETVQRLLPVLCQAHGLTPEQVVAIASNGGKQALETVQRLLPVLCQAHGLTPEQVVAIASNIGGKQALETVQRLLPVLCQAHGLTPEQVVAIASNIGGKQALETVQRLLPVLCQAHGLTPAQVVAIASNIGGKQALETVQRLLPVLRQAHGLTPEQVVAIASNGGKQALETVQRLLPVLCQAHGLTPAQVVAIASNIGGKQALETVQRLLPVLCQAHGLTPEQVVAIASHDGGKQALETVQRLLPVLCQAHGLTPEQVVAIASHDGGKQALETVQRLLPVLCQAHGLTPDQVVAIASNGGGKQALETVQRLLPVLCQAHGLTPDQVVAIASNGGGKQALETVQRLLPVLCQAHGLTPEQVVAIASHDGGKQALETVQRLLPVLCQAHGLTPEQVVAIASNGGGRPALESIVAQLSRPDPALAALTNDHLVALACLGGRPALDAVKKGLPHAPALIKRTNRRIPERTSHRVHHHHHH

T4: pN-TALER N3.2 (synthetic)
T4 chain: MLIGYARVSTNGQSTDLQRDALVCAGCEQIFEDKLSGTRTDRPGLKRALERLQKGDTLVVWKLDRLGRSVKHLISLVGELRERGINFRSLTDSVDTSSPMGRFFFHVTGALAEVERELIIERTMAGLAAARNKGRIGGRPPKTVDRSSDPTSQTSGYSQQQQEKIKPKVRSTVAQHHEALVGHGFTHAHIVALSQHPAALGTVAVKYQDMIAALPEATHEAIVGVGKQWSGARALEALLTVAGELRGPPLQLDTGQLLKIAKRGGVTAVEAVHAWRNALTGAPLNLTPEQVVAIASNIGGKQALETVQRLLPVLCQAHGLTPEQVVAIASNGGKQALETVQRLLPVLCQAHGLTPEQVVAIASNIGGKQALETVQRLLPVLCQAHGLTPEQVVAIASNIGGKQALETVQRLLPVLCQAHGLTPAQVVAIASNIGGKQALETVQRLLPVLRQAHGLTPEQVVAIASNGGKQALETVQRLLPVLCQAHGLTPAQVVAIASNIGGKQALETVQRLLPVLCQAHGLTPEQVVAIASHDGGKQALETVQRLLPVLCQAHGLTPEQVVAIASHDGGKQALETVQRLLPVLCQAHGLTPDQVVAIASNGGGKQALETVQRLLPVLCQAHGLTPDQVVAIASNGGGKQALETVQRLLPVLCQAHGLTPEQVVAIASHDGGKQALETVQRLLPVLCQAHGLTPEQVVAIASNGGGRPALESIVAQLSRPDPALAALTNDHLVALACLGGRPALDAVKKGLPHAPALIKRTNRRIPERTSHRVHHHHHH

B1: Gin20TALE+15 (dsDNA)
DNA 1: AGAAGGTATTTATATAGGCACACATGTTATCCAAAACCATGGTTTACAGGACGTTCACACGGTATATAAATACCTTCT
DNA 2: AGAAGGTATTTATATACCGTGTGAACGTCCTGTAAACCATGGTTTTGGATAACATGTGTGCCTATATAAATACCTTCT
B2: Gin20TALE+5 (dsDNA)
DNA 1: AGAAGGTATTTATATATTATCCAAAACCATGGTTTACAGGACTATATAAATACCTTCT
DNA 2: AGAAGGTATTTATATAGTCCTGTAAACCATGGTTTTGGATAATATATAAATACCTTCT

How the values were obtained:
Assay in all cases: cell_activity; E. coli
pN-TALER IV-12 = biological target: T1, pN-TALER IV-12
Procedure: (§1) To test for recombination, E. coli DH5alpha cells were co-transformed with different combinations of TALER expression construct and TALER reporter construct pairs (Tables 6 and 7). The N-TALER expression and reporter constructs were in an approximate 1:1 mass ratio during the transformation. The co-transformed bacteria were plated on media with chloramphenicol, kanamycin, and X-gal then incubated at 37° C. for 18 to 36 hours. Control samples consisted of transformations using the reporter construct alone. Control transformants were similarly plated. The bacterial transformation protocol was either heat shock or electroporation per standard molecular biology techniques.
(§2) The N-TALER expression constructs representing the N-TALER chimeras with varying linker lengths were co-transformed with N-TALER reporter constructs with TALER central sequence lengths of 18, 20, 24, 30, 40, and 50 bp (Table 13). […] Recombination did occur, but was less efficient with the pN-TALER IV-14 (linker length of 71 amino acids) with each of the N-TALER reporters tested.

sN-TALER IV-12 = biological target: T2, sN-TALER IV-12
Procedure: as §1, §2

[1] = biological target: T3, pN-TALER IV-1-EE2 (GinL7C7-EE2-TALE13); conditions: tags: 6-His
Procedure: as §1
Two additional N-TALERs, based on N-TALER IV-1, were constructed wherein the GinH106Y recombinase catalytic domain was replaced with either the GinL7C7-EE2 catalytic domain or the GinL7C7-EE3 permissive recombinase catalytic domain. These N-TALERs were labeled pN-TALER IV-1-EE2 (SEQ ID NO:41) and pN-TALER IV-1-EE3 (SEQ ID NO:45), respectively. pN-TALER IV-1-EE2 was tested in combination with seventeen N-TALER reporter constructs and pN-TALER IV-1-EE3 was tested with three reporter constructs (Table 10).

pN-TALER N3.2 = biological target: T4, pN-TALER N3.2
Procedure: The co-transformed bacteria were plated on media with chloramphenicol, kanamycin, and X-gal then incubated at 37° C. for 18 to 36 hours. Control samples consisted of transformations using the reporter construct alone. Control transformants were similarly plated. The bacterial transformation protocol was either heat shock or electroporation per standard molecular biology techniques.
For each of these N-TALER chimera expression constructs, from one to three independent clones were selected for plasmid purification. These N-TALER chimera expression constructs were co-transformed with five of the N-TALER reporter constructs, as indicated in Table 15. […] In contrast to the result for pN-TALER N4.2.2, the chimera sN-TALER N4.2.2, with the same truncation point but a specific recombinase catalytic domain, reporters with 20, 24, or 40 bp of TALER central sequence length were efficiently recombined (score of 1) while reporters with 30 or 50 bp of TALER central sequence length were not recombined (score of 5). For the chimera sN-TALER N4.2, reporters with 20, 24, or 40 bp of TALER central sequence length were efficiently recombined (score of 1); the reporter with 30 bp of TALER central sequence length was poorly recombined (score of 3); and the reporter with 50 bp of TALER central sequence length was not recombined (score of 5). For the chimera pN-TALER N4.2, the recombination efficiency on the reporters tested varied from intermediate (scores of 3 and 4) to none (score of 5). […] In contrast to the result for sN-TALER N3.2, the chimera pN-TALER N3.2, with the same truncation point but a permissive recombinase catalytic domain, recombination efficiency on the reporters tested varied from efficient (scores of 1.5, 2, and 3) to none (score of 5). For both chimeras sN-TALER V.2 and pN-TALER V.2, there was efficient recombination (scores of 1, 1.5, and 2) of the 5 N-TALER reporter constructs tested.

Binder | activity (pN-TALER IV-12) [score] | activity (sN-TALER IV-12) [score] | activity [1] [score] | activity (pN-TALER N3.2) [score]
B1 | 1 | 1 |  | 
B2 |  |  | 1 | 1.5
